Changes are numbered by the printed parent chain.
Experiments:
Assay in all cases: filter
Conditions in all cases: J = PPdU at every J; SB18T0.01 + 1 mM DTT, 37 C
[1] = target: T1, RIG-I H847A (Homo sapiens) (UniProt O95786)
T1 sequence: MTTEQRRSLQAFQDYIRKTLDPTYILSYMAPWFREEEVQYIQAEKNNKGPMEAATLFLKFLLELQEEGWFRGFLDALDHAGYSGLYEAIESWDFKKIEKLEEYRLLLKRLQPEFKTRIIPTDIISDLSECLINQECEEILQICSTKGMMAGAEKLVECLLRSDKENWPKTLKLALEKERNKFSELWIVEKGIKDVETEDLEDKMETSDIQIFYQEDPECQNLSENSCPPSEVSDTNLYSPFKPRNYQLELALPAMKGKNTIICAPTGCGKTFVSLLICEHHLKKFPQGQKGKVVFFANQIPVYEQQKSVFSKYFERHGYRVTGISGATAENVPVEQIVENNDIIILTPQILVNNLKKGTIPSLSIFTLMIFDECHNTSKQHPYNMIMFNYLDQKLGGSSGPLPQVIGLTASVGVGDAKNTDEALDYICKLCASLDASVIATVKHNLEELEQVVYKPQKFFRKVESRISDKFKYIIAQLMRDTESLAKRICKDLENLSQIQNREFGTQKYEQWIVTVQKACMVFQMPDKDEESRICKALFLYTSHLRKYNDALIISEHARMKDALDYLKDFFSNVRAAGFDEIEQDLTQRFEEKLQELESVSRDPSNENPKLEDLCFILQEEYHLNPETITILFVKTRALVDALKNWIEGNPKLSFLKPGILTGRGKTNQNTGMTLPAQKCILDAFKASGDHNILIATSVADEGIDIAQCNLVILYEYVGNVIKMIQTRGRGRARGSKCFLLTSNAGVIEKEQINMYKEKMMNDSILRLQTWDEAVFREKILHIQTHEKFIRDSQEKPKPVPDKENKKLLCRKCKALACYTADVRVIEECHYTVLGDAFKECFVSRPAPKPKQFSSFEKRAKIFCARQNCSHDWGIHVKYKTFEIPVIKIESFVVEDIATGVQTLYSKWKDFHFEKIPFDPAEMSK

[2] = target: T2, RIG-I K849A (Homo sapiens) (UniProt O95786)
T2 sequence: T1 sequence with A847H, K849A

[3] = target: T3, RIG-I K888A (Homo sapiens) (UniProt O95786)
T3 sequence: T1 sequence with A847H, K888A

For “ATCTCTGTGTCATGTGTTTTAATGTCAGTTTAATGATGAGG [14832-55_8]”, the Kd [1] was 9.9 nM, the Kd [2] was 0.62 nM and the Kd [3] was 0.53 nM.

Source: patent US20220333113
